In US20230203156A1 (published 2023) one finds EC50 and Kd data, which are given here for three molecules.

The target of experiment [1] is T1, human CD47 (human, UniProt Q08722 19-323). The experiment can be described thus: FACS binding, C6 cells expressing human CD47.
The target of the next experiment is T2, cynomolgus CD47 (cynomolgus, UniProt A0A5F8AK49 19-323).
T2 chain: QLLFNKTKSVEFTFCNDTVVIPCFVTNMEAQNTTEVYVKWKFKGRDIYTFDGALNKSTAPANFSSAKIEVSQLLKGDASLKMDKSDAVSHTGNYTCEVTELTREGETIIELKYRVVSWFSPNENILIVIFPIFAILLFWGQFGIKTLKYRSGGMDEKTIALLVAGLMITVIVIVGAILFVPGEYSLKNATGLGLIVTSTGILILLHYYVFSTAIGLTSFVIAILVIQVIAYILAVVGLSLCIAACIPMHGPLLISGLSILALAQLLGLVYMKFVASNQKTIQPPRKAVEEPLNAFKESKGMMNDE
The experiment can be described thus: FACS binding, C6-cKT14 cells.

Experiment [2] addresses T1, human CD47. The experiment can be described thus: FACS binding, C6-hKT14 cells.
The target of experiment [3] is cynomolgus MDR1 (Macaca fascicularis). The experiment can be described thus: FACS binding, 293T-cB1 cells.
In experiment [4] the target is T3, human MDR1 (multidrug resistance protein 1) (UniProt P08183 1-1280). The experiment can be described thus: FACS binding, 293T cells expressing human MDR1.
The target of experiment [5] is T3, human MDR1 (multidrug resistance …). The experiment can be described thus: FACS binding, 293T-hB1 cells.

Chain of cynomolgus MDR1 (Macaca fascicularis) (chain, as listed by the source): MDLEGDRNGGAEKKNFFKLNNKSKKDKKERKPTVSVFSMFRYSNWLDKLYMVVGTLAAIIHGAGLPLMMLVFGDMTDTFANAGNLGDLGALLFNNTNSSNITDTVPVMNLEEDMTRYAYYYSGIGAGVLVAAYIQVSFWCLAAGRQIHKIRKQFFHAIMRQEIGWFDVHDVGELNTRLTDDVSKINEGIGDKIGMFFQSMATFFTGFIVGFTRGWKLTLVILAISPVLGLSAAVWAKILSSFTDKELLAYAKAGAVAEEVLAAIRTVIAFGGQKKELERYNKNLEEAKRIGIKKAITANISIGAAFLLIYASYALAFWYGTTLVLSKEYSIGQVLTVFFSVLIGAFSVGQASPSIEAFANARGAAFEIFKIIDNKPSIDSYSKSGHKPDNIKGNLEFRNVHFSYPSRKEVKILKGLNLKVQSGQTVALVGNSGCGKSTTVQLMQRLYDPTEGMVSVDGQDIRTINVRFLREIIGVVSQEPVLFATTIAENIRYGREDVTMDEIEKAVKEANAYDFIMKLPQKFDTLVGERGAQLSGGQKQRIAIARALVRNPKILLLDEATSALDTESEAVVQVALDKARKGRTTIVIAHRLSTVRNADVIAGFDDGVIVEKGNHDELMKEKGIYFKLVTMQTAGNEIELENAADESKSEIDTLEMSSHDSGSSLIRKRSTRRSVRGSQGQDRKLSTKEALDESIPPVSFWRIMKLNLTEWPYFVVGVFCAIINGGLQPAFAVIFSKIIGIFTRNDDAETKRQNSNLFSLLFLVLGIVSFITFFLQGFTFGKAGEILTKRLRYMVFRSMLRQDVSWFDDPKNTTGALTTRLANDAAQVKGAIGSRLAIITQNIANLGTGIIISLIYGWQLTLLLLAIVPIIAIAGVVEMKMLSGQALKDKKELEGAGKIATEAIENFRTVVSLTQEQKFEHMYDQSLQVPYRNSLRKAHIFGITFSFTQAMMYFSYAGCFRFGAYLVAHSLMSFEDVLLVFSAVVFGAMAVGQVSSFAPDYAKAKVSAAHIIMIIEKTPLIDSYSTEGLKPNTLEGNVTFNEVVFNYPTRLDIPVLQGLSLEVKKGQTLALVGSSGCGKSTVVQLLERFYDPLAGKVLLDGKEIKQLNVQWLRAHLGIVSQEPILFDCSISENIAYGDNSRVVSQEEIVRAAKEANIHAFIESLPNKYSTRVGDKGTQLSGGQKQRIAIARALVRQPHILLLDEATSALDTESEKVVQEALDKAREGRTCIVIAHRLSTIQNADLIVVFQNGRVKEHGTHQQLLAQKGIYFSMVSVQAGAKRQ

B1: KT14.B6H12hu scFv-B1.28.hu13 (bispecific antibody)
scFv: not shown
heavy: EVQLVESGGGLVKPGGSLRLSCAASGFTFGLYTMSWVRQAPGKGLEWVATISSGGSNTYYPDSVKGRFTISRDNAKNSLYLQMNSLRAEDTAVYYCARYYRYDAWFAYWGQGTLVTVSSASTKGPSVFPLAPSSKSTSGGTAALGCLVKDYFPEPVTVSWNSGALTSGVHTFPAVLQSSGLYSLSSVVTVPSSSLGTQTYICNVNHKPSNTKVDKRVEPKSCDKTHTCPPCPAPELLGGPSVFLFPPKPKDTLMISRTPEVTCVVVDVSHEDPEVKFNWYVDGVEVHNAKTKPREEQYNSTYRVVSVLTVLHQDWLNGKEYKCKVSNKALPAPIEKTISKAKGQPREPQVCTLPPSREEMTKNQVSLSCAVKGFYPSDIAVEWESNGQPENNYKTTPPVLDSDGSFFLVSKLTVDKSRWQQGNVFSCSVMHEALHNHYTQKSLSLSPGK
light: EVVLTQSPATLSLSPGERATLSCRSSQNIVHSTGNTYLDWYQQKPGQSPRLLIYKVSNRFSGVPARFSGSGSGTDFTLTISSLEPEDFAVYYCFQGSHIPRTFGGGTKLEIKRTVAAPSVFIFPPSDEQLKSGTASVVCLLNNFYPREAKVQWKVDNALQSGNSQESVTEQDSKDSTYSLSSTLTLSKADYEKHKVYACEVTHQGLSSPVTKSFNRGEC
Regarding B1, the EC50 with human CD47 [1] came to 1.5 nM.

B2: B1.28DD/KT14KK/28 (antibody)
chain 1: EVKLVESGGGLVKPGGSLKLSCAASGFTFGLYTMSWVRQTPERRLEWVATISSGGSNTYYPDSVKGRFTISRDNAKNNLFLQMNSLRSEDTALYYCARYYRYDAWFAYWGQGTLVTVSS
chain 2: QVQLVQSGAEVKKPGASVKVSCKASGYTFTNYNMHWVRQAPGQRLEWMGTIYPGNDDTSYNQKFKDRVTITADTSASTAYMELSSLRSEDTAVYYCARGGYRAMDYWGQGTLVTVSS
chain 3: DVLLTQTPLSLPVSLGDQASISCRSSQNIVHSTGNTYLDWYLQKPGQSPKLLIYKVSNRFSGVPDRFSGSGSGTDFTLKISRVEAEDLGVYFCFQGSHIPRTFGGGTKLEIK
Consider B2, for which the EC50 with cynomolgus CD47 was 83 nM; with human CD47 [2] it was 40 nM.

B3: B1.28 (antibody, V domains shown)
VH: B2 chain 1
VL: B2 chain 3
As for B3, the Kd in experiment [3] was 97 nM; in experiment [5], 17 nM. The molecule also gave an EC50 in experiment [4] of 4.8 nM.
